Source: IntAct's records for PubMed 28164238

B1: T-box transcription factor TBX5 (Mus musculus), P70326 (parent)
chain: MADTDEGFGLARTPLEPDSKDRSCDSKPESALGAPSKSPSSPQAAFTQQGMEGIKVFLHERELWLKFHEVGTEMIITKAGRRMFPSYKVKVTGLNPKTKYILLMDIVPADDHRYKFADNKWSVTGKAEPAMPGRLYVHPDSPATGAHWMRQLVSFQKLKLTNNHLDPFGHIILNSMHKYQPRLHIVKADENNGFGSKNTAFCTHVFPETAFIAVTSYQNHKITQLKIENNPFAKGFRGSDDLELHRMSRMQSKEYPVVPRSTVRHKVTSNHSPFSSETRALSTSSNLGSQYQCENGVSGPSQDLLPPPNPYPLAQEHSQIYHCTKRKDEECSSTEHPYKKPYMETSPSEEDTFYRSGYPQQQGLSTSYRTESAQRQACMYASSAPPSEPVPSLEDISCNTWPSMPSYSSCTVTTVQPMDRLPYQHFSAHFTSGPLVPRLAGMANHGSPQLGEGMFQHQTSVAHQPVVRQCGPQTGLQSPGGLQPPEFLYTHGVPRTLSPHQYHSVHGVGMVPEWSENS

Tests used:
[1] = variants of: B1; details: with klf13_mouse Klf13, Q9JJZ6
[2] = variants of: B1; details: with nkx25_mouse Nkx2-5, P42582
nkx25_mouse Nkx2-5, P42582, sequence (P42582 whole entry): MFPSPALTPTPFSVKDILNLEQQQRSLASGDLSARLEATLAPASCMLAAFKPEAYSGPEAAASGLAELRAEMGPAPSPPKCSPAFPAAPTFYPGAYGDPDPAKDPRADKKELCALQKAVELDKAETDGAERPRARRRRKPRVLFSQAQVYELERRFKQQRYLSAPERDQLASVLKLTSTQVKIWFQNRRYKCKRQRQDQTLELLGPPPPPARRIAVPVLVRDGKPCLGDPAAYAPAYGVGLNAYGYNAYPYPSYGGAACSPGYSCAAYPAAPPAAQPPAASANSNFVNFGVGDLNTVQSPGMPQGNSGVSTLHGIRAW

klf13_mouse Klf13, Q9JJZ6, sequence (Q9JJZ6 whole entry): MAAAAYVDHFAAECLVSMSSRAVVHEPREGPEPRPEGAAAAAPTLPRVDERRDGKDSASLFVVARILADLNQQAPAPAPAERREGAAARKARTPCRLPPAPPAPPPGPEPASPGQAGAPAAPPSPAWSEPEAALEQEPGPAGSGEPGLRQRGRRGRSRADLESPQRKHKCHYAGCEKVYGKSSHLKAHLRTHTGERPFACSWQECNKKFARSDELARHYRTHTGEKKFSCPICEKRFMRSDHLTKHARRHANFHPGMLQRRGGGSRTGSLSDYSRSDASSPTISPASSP

Row | Variant | effect of a mutation on the interaction [1] | effect of a mutation on the interaction [2]
1 | MADTDEGFGLARTPLEPDSKDRSCDSKPESALGAPSKSPSSPQAAFTQQGMEGTKVFLHERELWLKFHEVGTEMIITKAGRRMFPSYKVKVTGLNPKTKYILLMDIVPADDHRYKFADNKWSVTGKAEPAMPGRLYVHPDSPATGAHWMRQLVSFQKLKLTNNHLDPFGHIILNSMHKYQPRLHIVKADENNGFGSKNTAFCTHVFPETAFIAVTSYQNHKITQLKIENNPFAKGFRGSDDLELHRMSRMQSKEYPVVPRSTVRHKVTSNHSPFSSETRALSTSSNLGSQYQCENGVSGPSQDLLPPPNPYPLAQEHSQIYHCTKRKDEECSSTEHPYKKPYMETSPSEEDTFYRSGYPQQQGLSTSYRTESAQRQACMYASSAPPSEPVPSLEDISCNTWPSMPSYSSCTVTTVQPMDRLPYQHFSAHFTSGPLVPRLAGMANHGSPQLGEGMFQHQTSVAHQPVVRQCGPQTGLQSPGGLQPPEFLYTHGVPRTLSPHQYHSVHGVGMVPEWSENS [I54T] | with no effect | with no effect
2 | MADTDEGFGLARTPLEPDSKDRSCDSKPESALGAPSKSPSSPQAAFTQQGMEGIKVFLHERELWLKFHEVGTEMIITKAGRRMFPSYKVKVTGLNPKTKCILLMDIVPADDHRYKFADNKWSVTGKAEPAMPGRLYVHPDSPATGAHWMRQLVSFQKLKLTNNHLDPFGHIILNSMHKYQPRLHIVKADENNGFGSKNTAFCTHVFPETAFIAVTSYQNHKITQLKIENNPFAKGFRGSDDLELHRMSRMQSKEYPVVPRSTVRHKVTSNHSPFSSETRALSTSSNLGSQYQCENGVSGPSQDLLPPPNPYPLAQEHSQIYHCTKRKDEECSSTEHPYKKPYMETSPSEEDTFYRSGYPQQQGLSTSYRTESAQRQACMYASSAPPSEPVPSLEDISCNTWPSMPSYSSCTVTTVQPMDRLPYQHFSAHFTSGPLVPRLAGMANHGSPQLGEGMFQHQTSVAHQPVVRQCGPQTGLQSPGGLQPPEFLYTHGVPRTLSPHQYHSVHGVGMVPEWSENS [Y100C] | decreasing interaction strength | decreasing interaction strength
3 | MADTDEGFGLARTPLEPDSKDRSCDSKPESALGAPSKSPSSPQAAFTQQGMEGIKVFLHERELWLKFHEVGTEMIITKAGRRMFPSYKVKVTGLNLKTKYILLMDIVPADDHRYKFADNKWSVTGKAEPAMPGRLYVHPDSPATGAHWMRQLVSFQKLKLTNNHLDPFGHIILNSMHKYQPRLHIVKADENNGFGSKNTAFCTHVFPETAFIAVTSYQNHKITQLKIENNPFAKGFRGSDDLELHRMSRMQSKEYPVVPRSTVRHKVTSNHSPFSSETRALSTSSNLGSQYQCENGVSGPSQDLLPPPNPYPLAQEHSQIYHCTKRKDEECSSTEHPYKKPYMETSPSEEDTFYRSGYPQQQGLSTSYRTESAQRQACMYASSAPPSEPVPSLEDISCNTWPSMPSYSSCTVTTVQPMDRLPYQHFSAHFTSGPLVPRLAGMANHGSPQLGEGMFQHQTSVAHQPVVRQCGPQTGLQSPGGLQPPEFLYTHGVPRTLSPHQYHSVHGVGMVPEWSENS [P96L] | with no effect | decreasing interaction strength
4 | MADTDEGFGLARTPLEPDSKDRSCDSKPESALGAPSKSPSSPQAAFTQQGMEGIKVFLHERELWLKFHEVGTEMIITKAQRRMFPSYKVKVTGLNPKTKYILLMDIVPADDHRYKFADNKWSVTGKAEPAMPGRLYVHPDSPATGAHWMRQLVSFQKLKLTNNHLDPFGHIILNSMHKYQPRLHIVKADENNGFGSKNTAFCTHVFPETAFIAVTSYQNHKITQLKIENNPFAKGFRGSDDLELHRMSRMQSKEYPVVPRSTVRHKVTSNHSPFSSETRALSTSSNLGSQYQCENGVSGPSQDLLPPPNPYPLAQEHSQIYHCTKRKDEECSSTEHPYKKPYMETSPSEEDTFYRSGYPQQQGLSTSYRTESAQRQACMYASSAPPSEPVPSLEDISCNTWPSMPSYSSCTVTTVQPMDRLPYQHFSAHFTSGPLVPRLAGMANHGSPQLGEGMFQHQTSVAHQPVVRQCGPQTGLQSPGGLQPPEFLYTHGVPRTLSPHQYHSVHGVGMVPEWSENS [G80Q] | decreasing interaction strength | decreasing interaction strength
5 | MADTDEGFGLARTPLEPDSKDRSCDSKPESALGAPSKSPSSPQAAFTQQGMEGIKVFLHERELWLKFHEVGTEMIITKAGRRMFPSYKVKVTGLNPKTKYIPLMDIVPADDHRYKFADNKWSVTGKAEPAMPGRLYVHPDSPATGAHWMRQLVSFQKLKLTNNHLDPFGHIILNSMHKYQPRLHIVKADENNGFGSKNTAFCTHVFPETAFIAVTSYQNHKITQLKIENNPFAKGFRGSDDLELHRMSRMQSKEYPVVPRSTVRHKVTSNHSPFSSETRALSTSSNLGSQYQCENGVSGPSQDLLPPPNPYPLAQEHSQIYHCTKRKDEECSSTEHPYKKPYMETSPSEEDTFYRSGYPQQQGLSTSYRTESAQRQACMYASSAPPSEPVPSLEDISCNTWPSMPSYSSCTVTTVQPMDRLPYQHFSAHFTSGPLVPRLAGMANHGSPQLGEGMFQHQTSVAHQPVVRQCGPQTGLQSPGGLQPPEFLYTHGVPRTLSPHQYHSVHGVGMVPEWSENS [L102P] | decreasing interaction strength | decreasing interaction strength
6 | MADTDEGFGLARTPLEPDSKDRSCDSKPESALGAPSKSPSSPQAAFTQQGMEGIKVFLHERELWLKFHEVGTEMIITKVGRRMFPSYKVKVTGLNPKTKYILLMDIVPADDHRYKFADNKWSVTGKAEPAMPGRLYVHPDSPATGAHWMRQLVSFQKLKLTNNHLDPFGHIILNSMHKYQPRLHIVKADENNGFGSKNTAFCTHVFPETAFIAVTSYQNHKITQLKIENNPFAKGFRGSDDLELHRMSRMQSKEYPVVPRSTVRHKVTSNHSPFSSETRALSTSSNLGSQYQCENGVSGPSQDLLPPPNPYPLAQEHSQIYHCTKRKDEECSSTEHPYKKPYMETSPSEEDTFYRSGYPQQQGLSTSYRTESAQRQACMYASSAPPSEPVPSLEDISCNTWPSMPSYSSCTVTTVQPMDRLPYQHFSAHFTSGPLVPRLAGMANHGSPQLGEGMFQHQTSVAHQPVVRQCGPQTGLQSPGGLQPPEFLYTHGVPRTLSPHQYHSVHGVGMVPEWSENS [A79V] | decreasing interaction strength | decreasing interaction strength
